Results taken from the supplement of paper PMC9170038.

Test system: MS2 coat protein
Assay: apparent KD of MS2 coat protein; designed switch direction (-1 OFF switch, 1 ON switch): -1; higher = weaker reporter binding
Procedure, shortened: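 Three titration conditions were used: no input, 200 uM small-molecule ligand, and an oligonucleotide input. In each, SNAP-549-labelled MS2 coat protein was raised from 0.7 or 1.5 nM, doubling, to 3 µM over designed RNA switches transcribed on Illumina chips by stalled E. coli RNA polymerase. Curve fits of normalised cluster fluorescence gave values whose per-design median over clusters is the apparent KD.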

[1] = input ligand: microRNA oligo, concentration not stated
[2] = Eterna round: R95, input ligand: microRNA oligo, concentration not stated
[3] = Eterna round: R95, input ligand: FMN 200 uM
[4] = Eterna round: R95, input ligand: none

Row | Sequence | apparent KD of MS2 coat protein (input ligand: FMN 200 uM) | apparent KD of MS2 coat protein (input ligand: none) | apparent KD of MS2 coat protein [2] | also measured
1 | CCGGGCCCGGGAGGAUAUACAUGAGGAUCACCCAUGUGGGCCCGGGCCCGCGGGCCCGGGCCCGUGUAGAAGGCCCGGGCCCGG [-64.8, -63.2 kcal, A 14%] (Eterna round: R96, puzzle: Exclusion NG 2) | 27.2 nM | 19.9 nM | – | apparent KD of MS2 coat protein [1]: 5.13 nM
2 | CCGGUGUGAGGAUAUCGUGGCUUGCAGGAAACGCUAAGUCGCGAGAAGGCACAUGAGGAUCACCCAUGUGUAUC [Eternabot (L2) Solution 54] (Eterna round: R97, puzzle: Exclusion 4) | 62.8 nM | 24.7 nM | – | –
3 | CCGUCGGUAGGAUAUGCUAUGCAUGUCGGCGCUAUUUGAGGACAUGAGGAUCACCCAUGUAGAAGGGCCGAGGU [Eternabot (L1) Solution 55] (Eterna round: R97, puzzle: Exclusion 2) | 22.7 nM | 15.7 nM | – | –
4 | CCGUUGCUAGGAUAUACAUGAGGAUCACCCAUGUUUGAUCCAGCGAGUCAAUCCGCUUGUAGAAGGAGUUACAC [EX3 C.9] (Eterna round: R97, puzzle: Exclusion 3) | 25.3 nM | 26.4 nM | – | –
5 | CCUAUGUGAGGAUAUCACUGGUCUUCUCACUGGAUGACCAGUGAGAAGGCACAUGAGGAUCACCCAUGUCGGUG [Ex4 - 3 - 50] (puzzle: Exclusion 4) | – | – | 312 nM | –
6 | CCUCAGUAAGGAUAUCAGCUUAAGGAGGUGGUAAAGAGAGCUGAGAAGGUACAUGAGGAUCACCCAUGUUAAAA [Zatite] (Eterna round: R96, puzzle: Exclusion 4) | 193 nM | 57.2 nM | – | apparent KD of MS2 coat protein [1]: 47.1 nM
7 | CCUCAGUAAGGAUAUCAGCUUAAGGAGGUGGUAAAGAGAGCUGAGAAGGUACAUGAGGAUCACCCAUGUUAAAA [Zatite] (puzzle: Exclusion 4) | – | – | 44.9 nM | apparent KD of MS2 coat protein [3]: 64.4 nM; apparent KD of MS2 coat protein [4]: 50.2 nM
8 | CCUCAGUCACAGGAUAUGCUCAUCUAAUGAUGAGCAGAAGGGUGAACAUGAGGAUCACCCAUGUUUACCAGGGU [Omei Ex6 E5] (Eterna round: R97, puzzle: Exclusion 6) | 36 nM | 161 nM | – | –
9 | CCUCAGUGAGGAUAUGCUGCCGCCGUGAAUACACACCGCGCGUAGAAGGCACAUGAGGAUCACCCAUGUGAAGG [Eternabot (Original) Solution 9] (Eterna round: R97, puzzle: Exclusion 4) | 354 nM | 97.7 nM | – | –
10 | CCUCAUAGUCAGGAUAUCAGCGCGUUCGGCAAAUGAGAAGGGACCACAUGAGGAUCACCCAUGUAAAACCAAAA [Beencema] (Eterna round: R97, puzzle: Exclusion 6) | 44.1 nM | 36 nM | – | –
11 | CCUCAUAUUUAGGAUAUGAUUGGUAAUUAUUAGUUAGAAGGAGAUACAUGAGGAUCACCCAUGUAAUAUUUAAA [-11.7, -11.3 kcal, 36% A] (Eterna round: R97, puzzle: Exclusion 6) | 20.3 nM | 19.5 nM | – | –
12 | CCUCCACAUGAGGAUCACCCAUGUCAGGAUAUCGCGCGCGCGUUUUCGGUCUUUCGCGCGAGAAGGGACGACUG (puzzle: Exclusion 1) | – | – | 29 nM | –
13 | CCUCCACAUGAGGAUCACCCAUGUCAGGAUAUCGUGUGUGCUUUUUCGGUCUUUCGUGCGAGAAGGGACGUCUG (puzzle: Exclusion 1) | – | – | 25.5 nM | –
14 | CCUCCGGUAUAGGAUAUUUAUGAGCUCAGUUCUAAAGAAGGGUAUACAUGAGGAUCACCCAUGUGUGAAGUUAU [Eternabot (L2) Solution 20] (Eterna round: R97, puzzle: Exclusion 6) | 52.5 nM | 49.9 nM | – | –
15 | CCUCGACAUGAGGAUCACCCAUGUCAGGAUAUUGUGUCUCGGGUUUUUUACCGUUAGGCAAGAAGGGAUGUGUG [LRO-Excl1-14] (puzzle: Exclusion 1) | – | – | 19.7 nM | –
16 | CCUCGACGGUAGGAUAUCGUCAAACUAUUGUGAUGAGAAGGACUGACAUGAGGAUCACCCAUGUUAACGUGAUG [Exclusion 6 - 7:a] (puzzle: Exclusion 6) | – | – | 14.8 nM | –
17 | CCUCGCCCUCUUGCACAUGAGGAUCACCCAUGUUUUACGUACUAGGAUAUAGCUAUGUUCAAUCGUUAGAAGGAGUUCAUGGAU [Eternabot solution 37] (Eterna round: R96, puzzle: Exclusion NG 3) | – | – | – | apparent KD of MS2 coat protein [1]: 77.4 nM
18 | CCUCUACAUGAGGAUCACCCAUGUGAGGAUAUCUCGGAGCAGCCUAUUAAGGCGCUCCAGAGAAGGCACGUGUA [Dizasoorce] (puzzle: Exclusion 1) | – | – | 17.9 nM | –
19 | CCUGGGUAAGGAUAUUUGAUUCCCUCCGGUUAGGGAGGAUGGAAGAAGGUACAUGAGGAUCACCCAUGUGUGGA [Eternabot (L1) Solution 67] (Eterna round: R97, puzzle: Exclusion 4) | 94.7 nM | 97.8 nM | – | –
20 | CCUUAGUCAGGAUAUUGAGGUAAAAGAAAAGAAAACGACAGCAAGAAGGGACAUGAGGAUCACCCAUGUAUAAA [Bequxeain] (puzzle: Exclusion 4) | – | – | 30.1 nM | apparent KD of MS2 coat protein [3]: 24.4 nM; apparent KD of MS2 coat protein [4]: 16.2 nM
21 | CGAUAAAAGACAGGAUAUGAGGAGAGAGAGAGAUCAGAAGGGUCACAUGAGGAUCACCCAUGUGAGUUCUCGAAAGGAAAGAGG [Prohibition 51 - Jieux - Exclusion NG 1] (Eterna round: R96, puzzle: Exclusion NG 1) | 21.4 nM | 23 nM | – | apparent KD of MS2 coat protein [1]: 15 nM
22 | CGAUCACAUGAGGAUCACCCAUGUCAGGAUAUCGUCCAUAGGAAACAACCCUUCGAGGCGAGAAGGGACAAUCG [Eternabot (Original) Solution 29] (Eterna round: R97, puzzle: Exclusion 1) | 46.9 nM | 31.1 nM | – | –
23 | CGAUGUAACACAGGAUAUCAUCGCAACUGACGUUGAGAAGGGUGACAUGAGGAUCACCCAUGUGAUUUCUCAAUAUUAUACAUC [Prohibition 82 - Jieux - Exclusion NG 1] (Eterna round: R96, puzzle: Exclusion NG 1) | 715 nM | 1390 nM | – | apparent KD of MS2 coat protein [1]: 830 nM
24 | CGCAUGUGAGGAUAUUAGUAGUAGUCAGAAUAGACUAUUACUGAGAAGGUACAUGAGGAUCACCCAUGUAUGCG [Eli x4 4.22] (Eterna round: R97, puzzle: Exclusion 4) | 38.9 nM | 21.5 nM | – | –
25 | CGCCCUGACGAAGGAUAUUAAGCUCAUACAUGAGGAUCACCCAUGUCCAUAGUAGUGUAUGCACCUGAGAAGGUCGUCAGCGCU [Eternabot solution 50] (Eterna round: R96, puzzle: Exclusion NG 2) | 213 nM | 257 nM | – | apparent KD of MS2 coat protein [1]: 240 nM
26 | CGCGACUCAGGAUAUACAUGAGGAUCACCCAUGUGGAACUACUGGGUCGAUAAAAGGUGUAGAAGGGAGGAAAU [Veveesla] (puzzle: Exclusion 3) | – | – | 10.5 nM | apparent KD of MS2 coat protein [3]: 14.3 nM; apparent KD of MS2 coat protein [4]: 13.5 nM
27 | CGGAACCAGACAGGAUAUACCUGUCCGAGACAGACACACAUGAGGAUCACCCAUGUUGAUGUCAGGUAGAAGGGUCAUAAAGAC [Eternabot solution 7] (Eterna round: R96, puzzle: Exclusion NG 2) | 9.86 nM | 11.5 nM | – | apparent KD of MS2 coat protein [1]: 10.3 nM
